According to publication PMC7459580, “Molecular Basis for Endocrine Disruption by Pesticides Targeting Aromatase and Estrogen Receptor” (International Journal of Environmental Research and Public …, 2020):

Experiments:
aromatase (Aro) = target: T1, aromatase (Aro) (Homo sapiens, UniProt P11511); test: estrone competitive ELISA with purified aromatase and CPR; format: biochemical; settings: read-out: % residual activity at 1000 nM
T1 construct: gene CYP19A1; recombinant human aromatase; with human cytochrome P450 reductase (hCPR), electron donor
T1 sequence (P11511 whole entry): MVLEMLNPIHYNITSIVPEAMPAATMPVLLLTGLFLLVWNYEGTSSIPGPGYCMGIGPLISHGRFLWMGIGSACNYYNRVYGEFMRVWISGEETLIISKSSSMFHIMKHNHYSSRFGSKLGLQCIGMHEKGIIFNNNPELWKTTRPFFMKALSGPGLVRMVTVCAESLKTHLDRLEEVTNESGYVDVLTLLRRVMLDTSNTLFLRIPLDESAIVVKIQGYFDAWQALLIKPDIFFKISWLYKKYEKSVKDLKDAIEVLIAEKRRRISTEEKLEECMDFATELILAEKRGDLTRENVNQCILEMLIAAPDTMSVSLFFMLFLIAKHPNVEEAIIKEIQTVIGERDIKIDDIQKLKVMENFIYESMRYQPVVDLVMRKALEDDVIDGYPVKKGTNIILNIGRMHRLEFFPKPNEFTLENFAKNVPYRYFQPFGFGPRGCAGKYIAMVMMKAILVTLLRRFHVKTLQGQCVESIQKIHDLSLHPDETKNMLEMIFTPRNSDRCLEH
T1 sequence (P16435 2-677, further chain): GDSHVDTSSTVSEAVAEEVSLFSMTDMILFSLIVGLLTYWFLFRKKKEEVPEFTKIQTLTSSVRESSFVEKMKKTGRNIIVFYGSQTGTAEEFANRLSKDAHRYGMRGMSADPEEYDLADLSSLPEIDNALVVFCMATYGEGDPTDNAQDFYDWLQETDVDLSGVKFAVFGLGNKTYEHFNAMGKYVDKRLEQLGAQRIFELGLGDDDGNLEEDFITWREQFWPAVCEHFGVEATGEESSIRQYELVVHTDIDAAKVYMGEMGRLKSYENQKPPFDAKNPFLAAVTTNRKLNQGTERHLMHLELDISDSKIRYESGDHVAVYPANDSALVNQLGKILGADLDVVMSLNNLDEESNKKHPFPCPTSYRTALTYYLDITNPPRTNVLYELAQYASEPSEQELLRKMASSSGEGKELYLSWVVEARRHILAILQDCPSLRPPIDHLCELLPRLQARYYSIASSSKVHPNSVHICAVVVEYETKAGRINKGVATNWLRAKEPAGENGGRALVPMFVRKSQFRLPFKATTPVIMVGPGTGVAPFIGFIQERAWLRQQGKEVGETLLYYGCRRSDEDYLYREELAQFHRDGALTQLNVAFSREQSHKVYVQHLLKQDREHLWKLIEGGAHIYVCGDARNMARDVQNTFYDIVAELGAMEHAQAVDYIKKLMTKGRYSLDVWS

[1] = tested on: C[C@]12CCC(=O)C=C1CC[C@@H]1[C@@H]2CC[C@]2(C)C(=O)CC[C@@H]12; test: purified protein; settings: heme; NADPH active site

| Molecule | remaining activity at 1 µM (aromatase (Aro)) | Km [1] | kcat [1] |
| --- | --- | --- | --- |
| CC(C)(C#N)c1cc(Cn2cncn2)cc(C(C)(C)C#N)c1 [anastrozole] | 0.7% |  |  |
| aromatase (Aro) (Homo sapiens) |  | 0.0413 ± 0.0082 µM | 0.0003 ± 1.67e-05 s⁻¹ |
